From article PMC5976931

Biological target: B7-1 (mouse (endogenous in mouse podocytes)) (UniProt Q00609)
Chain of UniProt Q00609 (Q00609 38-306): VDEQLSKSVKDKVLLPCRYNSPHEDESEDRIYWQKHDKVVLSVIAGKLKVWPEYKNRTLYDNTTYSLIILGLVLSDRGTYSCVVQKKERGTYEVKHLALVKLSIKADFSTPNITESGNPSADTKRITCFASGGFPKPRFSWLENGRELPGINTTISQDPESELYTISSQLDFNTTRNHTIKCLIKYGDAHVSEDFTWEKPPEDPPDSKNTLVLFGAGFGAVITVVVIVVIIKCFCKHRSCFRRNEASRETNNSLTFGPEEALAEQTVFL

## CD28 (from UniProt P31041 20-218) (receptor)
  late apoptosis rate of LPS-treated podocytes cocultured with γδT cells (Group D), Annexin-PI, 48 hours: 10.2%
  late apoptosis rate of LPS-treated podocytes cocultured with γδT cells and treated with the CD28/B7-1 blocker CTLA4-Ig, 100 μg/ml (Group E), Annexin-PI, 48 hours: 6.43%
  phosphor-SRC immunofluorescence intensity in LPS-treated podocytes cocultured with γδT cells (Group D): 142
  phosphor-SRC immunofluorescence intensity in LPS-treated podocytes cocultured with γδT cells and treated with the CD28/B7-1 blocker CTLA4-Ig, 100 μg/ml (Group E): 24
